Measured values as given in the RNAGym collection of RNA variant scans (doi:10.1073/pnas.2313332121).
This sample holds only a part of the variants without activity.

B1: TPR 5TU (parent)
chain: GGAUCUUCUCGAUCUAACAAAAAAGACAAAUCUGCCACAAAGCUUGAGAGCAUCUUCGGAUGCAGAGGCGGCAGCCUUCGGUGGCGCGAUAGCGCCAACGUUCUCAACUAUGACACGCAAAACGCGUGCUCCGUUGAAUGGAGUUUAUCAUG

Variants of: B1
Experiment: polymerase ribozyme fitness, log enrichment relative to wild type (log ratio); higher = more active; in vitro selection for triplet polymerase activity
Summary of the method: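 Streptavidin-bead capture of gel-excised extended constructs, followed by RT-PCR, closed a single triplicate in vitro selection round. That round began by annealing PCR-built, transcribed mutant libraries of each subunit of a heterodimeric triplet polymerase ribozyme with a biotinylated primer, the partner subunit and triplets, then incubating them frozen at −7 °C. After Illumina sequencing of inputs and outputs, genotypes needed ≥10 input reads and ≥1 read per output. Fitness is the base-2 logarithm of genotype enrichment over wild-type enrichment, using inverse-variance-weighted replicate averages.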

Row | Variant | polymerase ribozyme fitness (log ratio)
1 | GGAUCUUCUCGAUCUAACAUAAAAGACAAAUCAGCCACAAAGCUUGAGAGCAUCUUCGGAUGCAGAGGCGGCAGCCUUCGGUAGCACGAUAGCGCCAACAUUCUCAACUAUGACACGCAAAACGCGUGCUCCGUUGAAUGGAGUUUAUUAUG [A20U U33A G83A G86A G100A C149U] | ≤ -4.2
2 | GGAUCUUCUCGAUCUAACAUAAAAGACAAAUCUGCCACAAAGCUUGAGAACAUCUUCGGAUGCAGAGGCGGCAGCCUUCGGUGGCGCGUUGGCGCCAACGUUCUCAACUAUGACACGCAAAACGCGUGCUCCGUUGAAUGGAGUUUAUCAUG [A20U G50A A89U A91G] | ≤ -4.2
3 | GGAUCUUCUCGAUCUAACAUAAAAGACAAAUCUGCCACAAAGCUUGAAAGCAUCUUCGGAUGCAGAGGCGGCAGCCUUCGGUGACGCGAUAGCGCCAACGUUCUCAACUAUGACACGCAAAACGCGUGCUCCGUUGAAUGGAGUUUAUCAUC [A20U G48A G84A G152C] | ≤ -4.2
4 | GGAUCUUCUCGAUCUAACAUAAAAGACAAAUCUGCCACAAAGCUUGAGAGCAUCUUCGGAUGCAGAGGCGGCAGCCUUCGGUGGCGCGAUAACGCCAACGUUCUCAACUAUGACACGCAAUACGCGUGCUCCGUUGAAUGCAGUUUAUCAUG [A20U G92A A121U G141C] | -4.03
5 | GGAUCUUCUCGAUCUAACAUAAAAGACAAAUCUGCCACAAAGCUAGAGAGCAUCUUCGGAUGCAGAGGCGGCAGCCUUCGGUGGCGCGAUAGCGCCAACGUUCUCAACUAUGACACGAAAAACGCGUGCUCCGUUGAAUGGAGUUUAUCAUG [A20U U45A C118A] | -3.82
6 | GGAUCUUCUCGAUCUAACAUAAAAGACAAAUCUGCCACAAAGCGUAAGAGCAUCUUCGCAUGCAGAGGCGGCAGCCUUCGGUGGCGCGAUAGCGCAAACGUUCUCAACUAUGACCCGCAAAACGCGUGCUCCGUUGAAUGGAGUUUAUCAUG [A20U U44G G46A G59C C96A A115C] | ≤ -4.2
7 | GGAUCUUCUCGAUCUAACAUAAAAGACAAAUCUGCCACAAAGCUUGAAAGCAUCUUCGGAUGCAGAGUCGGCAGCCUUCGGUCGCGCGAUAGCGCCAACGUUGUCAACUAUGACACGCAAAACGCGUGCUCCGUUGAGUGGACUUUAUCAUG [A20U G48A G68U G83C C103G A138G G143C] | ≤ -4.2
8 | GGAUCUUCUCGAUCUAACAUAAAAGACAAAGCUGCCACAAAGGUUGAGAGCUUCUUCGGAUGCAGAGGCGGCCGCCUUCGGUGGCGCGAUAGUUCCAACGUUCUCAACUAUGACAGGCAAGACGCGUGCUCCGUUGAAUGGAGUUUAUUAUG [A20U U31G C43G A52U A73C C93U G94U C116G A121G C149U] | ≤ -4.2
9 | GGAUCUUCUCGAUCUAACAUAAAAGACAAAUCUGCCACAAAGCUUGAGAGCAUCUUCGGAUGCAGAGGCGGCAGCCUUCGCUGGCGCGAUAGCGCCAACGUUCUCAACUAUGACACGCAAAACGCGUGCUCCGUUGAAUGGAGUUUUUCAUG [A20U G81C A147U] | -0.168
10 | GGAUCUUCUCGAUCUAACAUAAAAGACAAAUCUGCCACAAAGCUUGAGAGCAUCUUCGGAUGCAGAGGCGGCAGCCUUCGGUGGCGCGAUAGCACCAACGUUCUCAACUAUGACACGCAAAACGCGUGCUCCGUUGAAUGGAGUUUAUCAUG [A20U G94A] | -1.88
11 | GGAUCUUCUCGAUCUAACAUAAAAGACAAAUCUGCCACAAAGCUUGAGAGCAUCUUCGUAUGCAGAGGCGGCAGCCUUCGGUGGCGCGAUAGCGCCAACGUUCUCAACUAUGACACGCAAAACGCGUGCUCCGUUCAAUGUAGUUUAUCAUG [A20U G59U G136C G141U] | -3.78
12 | GGAUCUUCUCGAUCUAACAUAAAAGACAAAUCUGCCACAAAGCUUGAGAGCAUCUUCGGAUGCAGAGGCGGCAGCCUUCGGUCGCGCGAUAACGCCAACGUUCUCAACUAUGACACGCAAAACGCGAUCUCCGUUGAAUGGAGUUUAUCAUG [A20U G83C G92A U127A G128U] | ≤ -4.2
13 | GGAUCUUCUCGAUCUAACAUAAAAGACAAAUCUGCCACAAAGCUUGAGAGCAUCAUCGGAUGCAGAGUCGGCAGCCUUCGGUGGGGCGAUAGCGCCAACGUUCUUAACUAUGACACGCAAAACACGUGCUCCGUUGAAUCGAGUUUAUCAUG [A20U U55A G68U C85G C105U G124A G140C] | ≤ -4.2
14 | GGAUCUUCUCGAUCUAACAUAAAAGACAAAUCUGCCACAAAGCUUGAGAGCAUCUUCGGAUGCAGAGGCGGCAGCCUUCGGUGGCAGGAUUGCGCCAACGUUCUCAACUAUGACACGAAAAACGCGUGCUCCGUUGAAUGGAGUUUAUCAUG [A20U G86A C87G A91U C118A] | ≤ -4.2
15 | GGAUCUUCUCGAUCUAACAUAAAAGACAAAUCUGCCACAAAGCUUGAGAGCAUCUUCAGAUGCAGAGGCGGCAGCCUUCGGUGGCGCGAUAGCGCUAACGUUCUCAACUAGGACACGCAAAACACGUGCUCCGUUGAAUGGAGUUUAACAUG [A20U G58A C96U U111G G124A U148A] | ≤ -4.2
16 | GGAUCUUCUCGAUCUAACAUAAAAGACAAAUCUGCCACAAAGCUUGAGAACAUCGUCGGAUGCAGAGGCGGCAGCCUUCGGUGGUGCGAUUGCGCCAACGUUCUCAACUAUGACACGCAAAACGCGUGCUCCGUUGGAUGGAGUUUAUCAUG [A20U G50A U55G C85U A91U A137G] | ≤ -4.2
17 | GGAUCUUCUCGAUCUAACAUAAAAGACAAAUCUGCCACAAAGCUUGAGAGCAUCUUCGGAUGCAGAGGCGGCAGCCUUCGGUAGCGCGAUAGCGCGAACGUUCUCAACUAUGACACGUAAAACGCGUGCUCCGAUGAAUGGAGAUUAUCAUG [A20U G83A C96G C118U U134A U144A] | -3.46
18 | GGAUCUUCUCGAUCUAACAUAAAAGACAAAUCUGCCACAAAGCUUGAGAGCAUCUUCGGAUGCAGAGGCGACAGCCUUCGGUGGCGCGAUAGCGACAACGUUCUCAACUAUGACACGCAAAACGCGUGCUCCGUUGAAUGGAGUUUAUCAUG [A20U G71A C95A] | ≤ -4.2
19 | GGAUCUUCUCGAUCUAACAUAAAAGACAAAUCUGCCACAAAGCUUGAGAGCAUCGUCGGAUGCAGAGGCGGCAGCCUUCGGUGGCGCGAUAGGCCCAACGUUCUCAACUAUGACACGCAAAACGCGUGCUCCGUUGAAUGGGGUUUAUCAUG [A20U U55G C93G G94C A142G] | ≤ -4.2
